Assay results reported in publication PMC10896696 (The Journal of Cell Biology, 2024).

Molecular target: MBP-tag-fused HER2 intracellular domain (ICD, 712 aa-1255 aa) (human, UniProt P04626 712-1255)
Experiment: SPR

Row | Binder | Kd
1 | MBP-tag-fused intracellular domain (ICD) of WT TβRI (148 aa-503 aa) (domain or fragment, human, UniProt P36897 148-503, looked up) CHNRTVIHHRVPNEEDPSLDRPFISEGTTLKDLIYDMTTSGSGSGLPLLVQRTIARTIVLQESIGKGRFGEVWRGKWRGEEVAVKIFSSREERSWFREAEIYQTVMLRHENILGFIAADNKDNGTWTQLWLVSDYHEHGSLFDYLNRYTVTVEGMIKLALSTASGLAHLHMEIVGTQGKPAIAHRDLKSKNILVKKNGTCCIADLGLAVRHDSATDTIDIAPNHRVGTKRYMAPEVLDDSINMKHFESFKRADIYAMGLVFWEIARRCSIGGIHEDYQLPYYDLVPSDPSVEEMRKVVCEQKLRPNIPNRWQSCEALRVMAKIMRECWYANGAARLTALRIKKTLSQLSQQEGIKM | 4.24 nM
2 | MBP-tag-fused intracellular domain (ICD) of activated (GGD) TβRI (148 aa-503 aa) (domain or fragment, human, UniProt P36897 148-503, looked up) CHNRTVIHHRVPNEEDPSLDRPFISEGTTLKDLIYDMTTSGSGSGGGLLVQRTIARDIVLQESIGKGRFGEVWRGKWRGEEVAVKIFSSREERSWFREAEIYQTVMLRHENILGFIAADNKDNGTWTQLWLVSDYHEHGSLFDYLNRYTVTVEGMIKLALSTASGLAHLHMEIVGTQGKPAIAHRDLKSKNILVKKNGTCCIADLGLAVRHDSATDTIDIAPNHRVGTKRYMAPEVLDDSINMKHFESFKRADIYAMGLVFWEIARRCSIGGIHEDYQLPYYDLVPSDPSVEEMRKVVCEQKLRPNIPNRWQSCEALRVMAKIMRECWYANGAARLTALRIKKTLSQLSQQEGIKM | 2.68 nM
